# Laboratory results taken from patent US20030026781A1 (MITOKOR, published 2003).
# Key:
# Test in all cases: cell-based or functional assay
# [1] = target: mitochondrial ATP synthase (ETC Complex V) ATPase in rat liver submitochondrial particles (SMP) (rat, UniProt P15999 44-553; P10719 47-529; P35435 1-273; P35434 23-168; P29418 2-51)
# [2] = target: purified F1-ATPase subcomplex isolated from bovine cardiac samples (bovine, UniProt P19483 44-553; P00829 47-528; P05631 26-297; P05630 23-168; P05632 2-51)
# [3] = target: F0-F1-ATPase in rat ASMPs (alkaline submitochondrial particles) prepared from rat cardiac samples (rat, UniProt P15999 44-553; P10719 47-529; P35435 1-272; P35434 23-168; P29418 2-51)
# [4] = target: purified F0-F1 ATPase complex isolated from bovine cardiac samples (bovine, UniProt P19483 44-553; P00829 47-528; P05631 26-297; P05630 23-168; P05632 2-51)
Binder,"IC50, inhibition of oligomycin-sensitive ATPase in rat liver SMP [1] [nM]","IC50, inhibition of ATP hydrolysis by purified F1-ATPase [2] [nM]","IC50, inhibition of F0-F1-ATPase in rat ASMPs [3] [nM]","IC50, inhibition of ATP hydrolysis by purified F0-F1-ATPase [4] [nM]"
SIREAGGAFGKREKAEEDRYFREKTREQL [IF1 peptide 14-42 (synthetic peptide fragment of rat IF1)],> 2600,–,–,–
"FGKREKAEEDRYFREKTREQLAALK [IF1(22-46) synthetic polypeptide, amino acids 22-46 of the mature form of rat IF1]",–,~1390,–,–
"LAALKKHHEDEIDHHSK [IF1(42-58) synthetic polypeptide, amino acids 42-58 of the mature form of rat IF1]",–,~870,~2500,~180
SIREAGGAFGKREKAEEDRYFREKTREQLA [IF1 peptide 14-43 (synthetic peptide fragment of rat IF1)],> 1500,–,–,–
